Results on 28 substances are retold here after patent US20260184748A1, “COMPOSITIONS COMPRISING OCTADECANEUROPEPTIDES (ODN) AND SYNTHETIC DERIVATIVES THEREOF AND METHODS OF USE FOR MODULATION OF FOOD INTAKE, OBESITY, BODY WEIGHT, NAUSEA, AND EMESIS” (The Trustees of the University of Pennsylvania, priority 2022, published 2026).

Some targets named below: BDKRB2 (UniProt P30411); CCR2 (UniProt P41597); CCR5 (UniProt P51681); CCR3 (UniProt P51677); CCR7 (UniProt P32248); CCR9 (UniProt P51686); CXCR2 (UniProt P25025); CALCR-RAMP2 (UniProt P30988); GPR1 (UniProt P46091); C5L2 (UniProt Q9P296); C5aR1 (UniProt P21730); CX3CR1 (UniProt P49238); GIPR (UniProt P48546); GLP2R (UniProt O95838); GRPR (UniProt P30550); KISS1R (UniProt Q969F8); BDKRB1 (UniProt P46663); MLNR (UniProt O43193); HCRTR2 (UniProt O43614); OXTR (UniProt P30559); NPY1R (UniProt P25929); PRLHR (UniProt P49683); SCTR (UniProt P47872); BRS3 (UniProt P32247); TRHR (UniProt P34981); VIPR1 (UniProt P32241).

What all share (assay): cell-based or functional assay
In a further assay the target is T1, CCR1 (UniProt P32246).
T1 sequence (looked up): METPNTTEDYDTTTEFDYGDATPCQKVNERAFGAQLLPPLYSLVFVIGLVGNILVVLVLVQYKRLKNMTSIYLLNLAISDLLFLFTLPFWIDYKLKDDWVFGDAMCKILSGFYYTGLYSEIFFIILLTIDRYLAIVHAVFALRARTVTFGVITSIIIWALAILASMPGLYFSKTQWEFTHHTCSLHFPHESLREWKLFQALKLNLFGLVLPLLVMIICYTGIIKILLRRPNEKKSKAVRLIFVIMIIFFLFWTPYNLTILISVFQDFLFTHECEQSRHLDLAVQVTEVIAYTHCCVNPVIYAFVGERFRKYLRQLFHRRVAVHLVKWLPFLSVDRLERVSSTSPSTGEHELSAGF

The next assay addresses T2, CCR6 (UniProt P51684).
T2 sequence (looked up): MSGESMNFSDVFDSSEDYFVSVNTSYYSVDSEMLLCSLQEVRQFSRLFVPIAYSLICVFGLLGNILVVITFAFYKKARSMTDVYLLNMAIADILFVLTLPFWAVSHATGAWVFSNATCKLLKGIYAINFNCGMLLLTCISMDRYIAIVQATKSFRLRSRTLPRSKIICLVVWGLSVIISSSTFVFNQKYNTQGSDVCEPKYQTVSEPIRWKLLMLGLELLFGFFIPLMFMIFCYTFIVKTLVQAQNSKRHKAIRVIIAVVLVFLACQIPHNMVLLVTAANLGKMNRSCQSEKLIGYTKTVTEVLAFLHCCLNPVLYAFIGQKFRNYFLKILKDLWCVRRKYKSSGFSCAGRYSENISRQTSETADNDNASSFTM

For the next assay, the target named is T3, CXCR1 (UniProt P25024).
T3 sequence (looked up): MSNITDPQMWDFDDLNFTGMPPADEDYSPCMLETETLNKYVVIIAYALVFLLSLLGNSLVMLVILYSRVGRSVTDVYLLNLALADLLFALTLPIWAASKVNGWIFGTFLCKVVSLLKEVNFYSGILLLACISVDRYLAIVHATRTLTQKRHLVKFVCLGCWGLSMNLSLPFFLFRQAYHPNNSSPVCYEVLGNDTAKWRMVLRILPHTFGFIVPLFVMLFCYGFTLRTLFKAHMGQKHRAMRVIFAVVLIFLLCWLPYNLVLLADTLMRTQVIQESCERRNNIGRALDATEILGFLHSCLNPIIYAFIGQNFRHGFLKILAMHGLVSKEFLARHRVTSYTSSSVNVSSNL

Another assay has as its target T4, CALCR-RAMP3 (UniProt P30988).
T4 sequence (looked up) 1: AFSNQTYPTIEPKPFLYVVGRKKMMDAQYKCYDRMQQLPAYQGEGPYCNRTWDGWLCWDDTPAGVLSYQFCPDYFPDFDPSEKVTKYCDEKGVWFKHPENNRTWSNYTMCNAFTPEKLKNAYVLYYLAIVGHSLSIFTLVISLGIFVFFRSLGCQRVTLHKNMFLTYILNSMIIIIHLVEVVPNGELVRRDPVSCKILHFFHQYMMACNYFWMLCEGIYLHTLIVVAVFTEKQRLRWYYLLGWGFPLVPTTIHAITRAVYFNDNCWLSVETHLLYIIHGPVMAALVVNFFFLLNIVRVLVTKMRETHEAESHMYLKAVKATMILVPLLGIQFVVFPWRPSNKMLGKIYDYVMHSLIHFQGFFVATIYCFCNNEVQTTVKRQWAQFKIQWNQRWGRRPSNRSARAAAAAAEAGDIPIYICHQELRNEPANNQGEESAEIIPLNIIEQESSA
T4 sequence (looked up) 2: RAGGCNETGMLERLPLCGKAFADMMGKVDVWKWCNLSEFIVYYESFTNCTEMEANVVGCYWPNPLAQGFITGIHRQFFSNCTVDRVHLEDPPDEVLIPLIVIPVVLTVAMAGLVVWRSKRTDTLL

In the next assay the target is T5, CALCR (UniProt P30988).
T5 sequence (looked up): T4 sequence (looked up) 1

In a further assay the target is T6, GALR2 (UniProt O43603).
T6 sequence (looked up): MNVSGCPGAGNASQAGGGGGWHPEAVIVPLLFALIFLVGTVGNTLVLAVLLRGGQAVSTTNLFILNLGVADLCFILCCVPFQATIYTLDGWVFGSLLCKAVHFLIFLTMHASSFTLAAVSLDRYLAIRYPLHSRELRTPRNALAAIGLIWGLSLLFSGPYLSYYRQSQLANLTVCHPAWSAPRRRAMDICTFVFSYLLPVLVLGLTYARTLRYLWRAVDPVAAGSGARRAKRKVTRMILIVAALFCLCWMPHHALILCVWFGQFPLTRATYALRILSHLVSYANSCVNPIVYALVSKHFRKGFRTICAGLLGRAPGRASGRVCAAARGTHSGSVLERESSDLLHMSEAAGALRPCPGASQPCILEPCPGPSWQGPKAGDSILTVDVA

Assay [1] addresses relaxin-3 receptor (RXFP3) (UniProt Q9NSD7).

Sequence of CXCL8 (P10145 28-99 limits assumed): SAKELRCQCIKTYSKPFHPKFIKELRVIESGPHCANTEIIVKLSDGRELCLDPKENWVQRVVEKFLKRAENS
Sequence of Calcitonin (P01258 85-116 limits assumed): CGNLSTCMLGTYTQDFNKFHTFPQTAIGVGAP
Sequence of Complement C5a (P01031 678-751 limits assumed): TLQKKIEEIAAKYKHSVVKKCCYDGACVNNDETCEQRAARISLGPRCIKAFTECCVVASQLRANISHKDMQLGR
Sequence of CCL3 (P10147 24-92 limits assumed): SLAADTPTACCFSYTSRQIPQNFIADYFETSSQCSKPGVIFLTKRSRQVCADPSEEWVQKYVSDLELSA
Sequence of GRPR (P30550 whole entry): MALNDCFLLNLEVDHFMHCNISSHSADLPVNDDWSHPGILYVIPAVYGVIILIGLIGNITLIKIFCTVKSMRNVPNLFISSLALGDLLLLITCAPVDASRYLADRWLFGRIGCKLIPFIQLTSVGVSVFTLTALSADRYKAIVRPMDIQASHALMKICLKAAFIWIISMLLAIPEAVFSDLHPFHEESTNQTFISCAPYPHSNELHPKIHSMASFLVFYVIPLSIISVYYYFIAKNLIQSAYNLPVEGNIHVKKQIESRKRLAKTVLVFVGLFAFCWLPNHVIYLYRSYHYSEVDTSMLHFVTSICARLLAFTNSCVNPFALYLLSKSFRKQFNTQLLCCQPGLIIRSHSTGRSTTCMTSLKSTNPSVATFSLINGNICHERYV
Sequence of MLNR (O43193 whole entry): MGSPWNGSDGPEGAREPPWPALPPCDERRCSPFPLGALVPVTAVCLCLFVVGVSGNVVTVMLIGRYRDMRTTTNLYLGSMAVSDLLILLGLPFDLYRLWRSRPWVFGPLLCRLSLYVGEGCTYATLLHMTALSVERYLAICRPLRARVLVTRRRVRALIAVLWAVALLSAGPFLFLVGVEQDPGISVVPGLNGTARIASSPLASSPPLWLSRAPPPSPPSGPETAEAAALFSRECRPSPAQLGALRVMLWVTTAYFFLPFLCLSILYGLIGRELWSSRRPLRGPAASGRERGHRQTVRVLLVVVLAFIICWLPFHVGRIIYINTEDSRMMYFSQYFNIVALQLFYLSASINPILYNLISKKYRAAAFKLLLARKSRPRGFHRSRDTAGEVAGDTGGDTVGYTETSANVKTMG
Sequence of BRS3 (P32247 whole entry): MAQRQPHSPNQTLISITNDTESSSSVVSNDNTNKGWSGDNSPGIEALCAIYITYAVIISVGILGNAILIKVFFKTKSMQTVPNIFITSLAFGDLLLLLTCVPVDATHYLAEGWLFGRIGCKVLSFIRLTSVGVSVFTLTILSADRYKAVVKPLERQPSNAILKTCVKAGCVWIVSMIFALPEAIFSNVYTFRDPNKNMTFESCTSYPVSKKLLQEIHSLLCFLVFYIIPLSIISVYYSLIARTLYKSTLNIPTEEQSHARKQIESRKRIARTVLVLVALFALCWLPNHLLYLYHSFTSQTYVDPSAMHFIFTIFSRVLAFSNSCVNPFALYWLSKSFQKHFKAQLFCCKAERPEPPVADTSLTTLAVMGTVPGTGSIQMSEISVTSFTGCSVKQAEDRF
Sequence of Fractalkine (P78423 25-100 limits assumed): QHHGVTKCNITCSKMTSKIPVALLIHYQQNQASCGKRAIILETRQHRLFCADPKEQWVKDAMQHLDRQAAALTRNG
Sequence of C5L2 (Q9P296 whole entry): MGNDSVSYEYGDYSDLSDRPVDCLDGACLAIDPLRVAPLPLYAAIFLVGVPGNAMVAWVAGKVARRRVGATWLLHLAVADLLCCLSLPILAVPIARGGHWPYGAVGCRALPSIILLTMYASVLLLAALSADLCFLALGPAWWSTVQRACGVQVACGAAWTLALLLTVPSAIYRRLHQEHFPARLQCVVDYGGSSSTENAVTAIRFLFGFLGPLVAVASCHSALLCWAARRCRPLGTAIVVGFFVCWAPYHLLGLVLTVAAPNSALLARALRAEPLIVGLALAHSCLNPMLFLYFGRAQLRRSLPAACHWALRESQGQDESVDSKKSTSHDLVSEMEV
Sequence of C5aR1 (P21730 whole entry): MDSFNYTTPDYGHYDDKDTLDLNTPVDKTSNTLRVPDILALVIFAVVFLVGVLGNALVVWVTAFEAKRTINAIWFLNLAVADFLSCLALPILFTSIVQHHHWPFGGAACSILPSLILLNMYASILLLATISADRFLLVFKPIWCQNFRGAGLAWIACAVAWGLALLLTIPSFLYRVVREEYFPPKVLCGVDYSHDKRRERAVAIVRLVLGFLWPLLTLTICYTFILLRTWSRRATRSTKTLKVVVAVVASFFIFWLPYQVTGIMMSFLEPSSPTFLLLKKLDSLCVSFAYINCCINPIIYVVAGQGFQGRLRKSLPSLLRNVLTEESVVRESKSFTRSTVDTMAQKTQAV
Sequence of HCRTR2 (O43614 whole entry): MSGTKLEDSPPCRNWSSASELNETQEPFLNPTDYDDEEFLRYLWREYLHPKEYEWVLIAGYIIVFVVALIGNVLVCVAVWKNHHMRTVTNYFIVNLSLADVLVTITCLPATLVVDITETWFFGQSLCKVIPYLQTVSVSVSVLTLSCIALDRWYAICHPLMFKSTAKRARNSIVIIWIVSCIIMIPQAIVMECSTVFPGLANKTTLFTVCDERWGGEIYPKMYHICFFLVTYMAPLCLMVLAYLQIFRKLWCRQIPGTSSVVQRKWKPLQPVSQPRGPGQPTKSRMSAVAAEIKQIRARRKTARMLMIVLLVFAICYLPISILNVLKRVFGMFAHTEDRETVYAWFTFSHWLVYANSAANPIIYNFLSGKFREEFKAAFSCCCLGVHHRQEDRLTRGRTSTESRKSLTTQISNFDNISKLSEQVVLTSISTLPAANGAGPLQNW
Sequence of GPR1 (P46091 whole entry): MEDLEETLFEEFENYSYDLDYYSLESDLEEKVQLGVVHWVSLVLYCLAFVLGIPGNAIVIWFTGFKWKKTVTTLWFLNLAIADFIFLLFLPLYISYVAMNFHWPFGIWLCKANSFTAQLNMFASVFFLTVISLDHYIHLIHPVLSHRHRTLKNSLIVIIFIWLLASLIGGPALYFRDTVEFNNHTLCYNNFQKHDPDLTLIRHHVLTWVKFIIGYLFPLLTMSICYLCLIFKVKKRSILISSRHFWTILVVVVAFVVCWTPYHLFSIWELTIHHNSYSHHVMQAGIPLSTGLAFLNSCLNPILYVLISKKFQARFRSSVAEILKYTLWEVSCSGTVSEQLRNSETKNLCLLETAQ
Sequence of CCL20 (P78556 27-96 limits assumed): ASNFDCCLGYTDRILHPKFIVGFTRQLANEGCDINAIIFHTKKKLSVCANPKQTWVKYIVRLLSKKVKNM
Sequence of VIPR1 (P32241 31-457 limits assumed): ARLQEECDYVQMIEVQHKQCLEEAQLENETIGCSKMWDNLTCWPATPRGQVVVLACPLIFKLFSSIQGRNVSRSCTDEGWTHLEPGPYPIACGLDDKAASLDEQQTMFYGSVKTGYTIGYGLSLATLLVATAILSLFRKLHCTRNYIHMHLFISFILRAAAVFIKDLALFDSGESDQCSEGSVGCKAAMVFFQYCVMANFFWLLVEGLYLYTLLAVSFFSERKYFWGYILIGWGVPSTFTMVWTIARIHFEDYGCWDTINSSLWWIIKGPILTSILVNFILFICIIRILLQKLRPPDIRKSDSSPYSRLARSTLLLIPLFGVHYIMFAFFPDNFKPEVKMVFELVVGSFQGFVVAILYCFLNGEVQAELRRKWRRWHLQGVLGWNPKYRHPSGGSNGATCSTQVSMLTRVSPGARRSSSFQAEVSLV
Sequence of BDKRB1 (P46663 whole entry): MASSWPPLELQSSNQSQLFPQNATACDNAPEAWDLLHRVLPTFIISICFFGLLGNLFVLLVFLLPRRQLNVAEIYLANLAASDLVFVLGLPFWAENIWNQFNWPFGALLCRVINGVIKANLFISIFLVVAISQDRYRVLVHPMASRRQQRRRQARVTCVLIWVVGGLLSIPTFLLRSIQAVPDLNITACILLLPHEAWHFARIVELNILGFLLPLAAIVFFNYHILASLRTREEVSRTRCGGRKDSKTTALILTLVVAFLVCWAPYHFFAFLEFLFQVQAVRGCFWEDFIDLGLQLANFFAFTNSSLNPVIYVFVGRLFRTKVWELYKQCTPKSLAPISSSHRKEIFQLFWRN
Sequence of KISS1R (Q969F8 whole entry): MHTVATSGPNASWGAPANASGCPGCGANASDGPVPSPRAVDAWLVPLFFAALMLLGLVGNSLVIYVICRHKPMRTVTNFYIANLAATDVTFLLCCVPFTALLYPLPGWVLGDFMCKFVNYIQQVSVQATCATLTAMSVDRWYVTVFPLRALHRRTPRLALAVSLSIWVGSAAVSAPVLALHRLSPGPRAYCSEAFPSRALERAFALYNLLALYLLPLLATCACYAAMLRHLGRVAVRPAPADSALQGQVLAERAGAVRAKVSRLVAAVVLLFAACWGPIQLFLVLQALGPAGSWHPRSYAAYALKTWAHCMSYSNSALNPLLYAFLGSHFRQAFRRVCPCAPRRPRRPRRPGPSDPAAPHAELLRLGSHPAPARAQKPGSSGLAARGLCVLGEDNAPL
Sequence of CCL19 (Q99731 22-98 limits assumed): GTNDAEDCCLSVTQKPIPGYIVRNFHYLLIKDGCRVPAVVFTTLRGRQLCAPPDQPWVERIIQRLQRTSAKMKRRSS
Sequence of CCR9 (P51686 whole entry): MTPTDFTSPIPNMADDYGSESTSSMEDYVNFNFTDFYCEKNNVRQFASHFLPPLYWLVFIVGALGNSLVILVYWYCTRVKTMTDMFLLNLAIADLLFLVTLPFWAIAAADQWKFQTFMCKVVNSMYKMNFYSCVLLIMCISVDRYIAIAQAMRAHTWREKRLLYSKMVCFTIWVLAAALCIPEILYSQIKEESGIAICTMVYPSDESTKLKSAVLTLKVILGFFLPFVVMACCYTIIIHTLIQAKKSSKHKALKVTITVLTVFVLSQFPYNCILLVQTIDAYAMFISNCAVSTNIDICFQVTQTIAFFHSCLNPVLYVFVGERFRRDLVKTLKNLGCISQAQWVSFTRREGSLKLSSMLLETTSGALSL
Sequence of Galanin (P22466 33-62 limits assumed): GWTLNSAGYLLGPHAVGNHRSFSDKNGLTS

In the assay with BDKRB2, “Bradykinin (from UniProt P01042 381-389) (peptide)” showed an EC50 (RC50), arrestin, agonist mode of 5.57 nM and an EC80, arrestin, agonist mode of 9.82 nM.
Regarding “CCL2 (from UniProt P13500 24-99) (ligand)”, in the assay with CCR2, the EC50 (RC50), arrestin, agonist mode is 2.63 nM and the EC80, arrestin, agonist mode is 6.92 nM.
On to “CCL3 (from UniProt P10147 24-92) (ligand)”, for which, in the assay with CCR5, the EC50 (RC50), arrestin, agonist mode turned out to be 7.55 nM and the EC80, arrestin, agonist mode was 30.3 nM. Further, in the assay with CCR1, the EC50 (RC50), arrestin, agonist mode is 1.04 nM and the EC80, arrestin, agonist mode turned out to be 2.53 nM.
“CCL13 (from UniProt Q99616 24-98) (ligand)”: in the assay with CCR3, the EC50 (RC50), arrestin, agonist mode is 40.6 nM and the EC80, arrestin, agonist mode worked out at 140 nM.
In the assay with CCR7, “CCL19 (from UniProt Q99731 22-98) (ligand)” had an EC50 (RC50), arrestin, agonist mode of 5.65 nM and an EC80, arrestin, agonist mode of 19 nM.
On to “CCL20 (from UniProt P78556 27-96) (ligand)”, for which, in the assay with CCR6, the EC50 (RC50), arrestin, agonist mode came to 2.95 nM and the EC80, arrestin, agonist mode turned out to be 14.3 nM.
In the assay with CCR9, “CCL25 (from UniProt O15444 24-150) (ligand)” yielded an EC50 (RC50), arrestin, agonist mode of 173 nM and an EC80, arrestin, agonist mode of 370 nM.
In the assay with CXCR1, “CXCL8 (from UniProt P10145 28-99) (ligand)” had an EC50 (RC50), arrestin, agonist mode of 2.8 nM and an EC80, arrestin, agonist mode of 14.8 nM. Also, in the assay with CXCR2, the EC50 (RC50), arrestin, agonist mode was 0.304 nM and the EC80, arrestin, agonist mode came to 0.968 nM.
Take “Calcitonin (from UniProt P01258 85-116) (peptide)”: the figures for the EC80, arrestin, agonist mode in the assay with CALCR-RAMP3, in the assay with CALCR-RAMP2 and with CALCR were 384 nM, 33.7 nM and 72.9 nM, respectively.
Take “Chemerin (from UniProt Q99969 21-157) (ligand)”: in the assay with GPR1, the EC50 (RC50), arrestin, agonist mode was 2.26 nM and the EC80, arrestin, agonist mode stood at 4.67 nM.
In the assay with C5L2, “Complement C5a (from UniProt P01031 678-751) (ligand)” returned an EC50 (RC50), arrestin, agonist mode of 1.57 nM and an EC80, arrestin, agonist mode of 2.7 nM. In the assay with C5aR1, this substance showed an EC50 (RC50), arrestin, agonist mode of 1.38 nM and an EC80, arrestin, agonist mode of 3.64 nM.
“Fractalkine (from UniProt P78423 25-100) (ligand)”: in the assay with CX3CR1, the EC50 (RC50), arrestin, agonist mode came to 0.444 nM and the EC80, arrestin, agonist mode is 1.45 nM.
In the case of “GIP (from UniProt P09681 52-93) (peptide)”, in the assay with GIPR, the EC50 (RC50), arrestin, agonist mode was determined as 4.87 nM and the EC80, arrestin, agonist mode turned out to be 18.5 nM.
In the assay with GLP2R, “GLP II (1-33) (from UniProt P01275 21-180) (peptide)” came in with an EC50 (RC50), arrestin, agonist mode of 2.3 nM and an EC80, arrestin, agonist mode of 8.97 nM.
“GRP (from UniProt P07492 24-50) (peptide)”: in the assay with GRPR, the EC50 (RC50), arrestin, agonist mode stood at 1.62 nM and the EC80, arrestin, agonist mode came out at 5.92 nM.
In the assay with GALR2, “Galanin (from UniProt P22466 33-62) (peptide)” had an EC50 (RC50), arrestin, agonist mode of 6.81 nM and an EC80, arrestin, agonist mode of 12.2 nM.
In the assay with KISS1R, “Kisspeptin-10 (from UniProt Q15726 112-121) (peptide)” yielded an EC50 (RC50), arrestin, agonist mode of 17.6 nM and an EC80, arrestin, agonist mode of 37.6 nM.
In the assay with BDKRB1, LDA-Bradykinin (peptide) came in with an EC50 (RC50), arrestin, agonist mode of 3.65 nM and an EC80, arrestin, agonist mode of 14 nM.
In the assay with MLNR, “Motilin (from UniProt P12872 26-47) (peptide)” had an EC50 (RC50), arrestin, agonist mode of 1.59 nM and an EC80, arrestin, agonist mode of 5.63 nM.
As to “Orexin A (from UniProt O43612 34-66) (peptide)”, in the assay with HCRTR2, the EC50 (RC50), arrestin, agonist mode came to 18.2 nM and the EC80, arrestin, agonist mode stood at 42.5 nM.
As for “Oxytocin (from UniProt P01178 20-28) (peptide)”, in the assay with OXTR, the EC50 (RC50), arrestin, agonist mode was found to be 3.23 nM and the EC80, arrestin, agonist mode came to 7.19 nM.
Regarding Peptide YY (from UniProt P10082 29-64), in the assay with NPY1R, the EC50 (RC50), arrestin, agonist mode was 3.93 nM and the EC80, arrestin, agonist mode stood at 12.4 nM.
“PrRP-31 (from UniProt P81277 23-53) (peptide)” registered an EC80, arrestin, agonist mode in the assay with PRLHR of 10.7 nM.
In [1], “Relaxin-3 (from UniProt Q8WXF3 26-142; Q8WXF3 26-142) (ligand)” registered an EC50 (RC50), arrestin, agonist mode of 11.9 nM and an EC80, arrestin, agonist mode of 62.5 nM.
Consider “Secretin (from UniProt P09683 28-54) (peptide)”, for which, in the assay with SCTR, the EC50 (RC50), arrestin, agonist mode was 1.74 nM and the EC80, arrestin, agonist mode was found to be 9.2 nM.
In the case of TAPN-Bombesin (peptide), in the assay with BRS3, the EC50 (RC50), arrestin, agonist mode is 1.24 nM and the EC80, arrestin, agonist mode was 3.73 nM.
In the assay with TRHR, “TRH (from UniProt P20396 84-86) (peptide)” came in with an EC50 (RC50), arrestin, agonist mode of 2.02 nM and an EC80, arrestin, agonist mode of 7.14 nM.
Regarding “VIP (from UniProt P01282 125-152) (peptide)”, in the assay with VIPR1, the EC50 (RC50), arrestin, agonist mode turned out to be 1.73 nM and the EC80, arrestin, agonist mode came to 3.69 nM.
